Laboratory results as given in IntAct's records for PubMed 25096571.

Target: FOXP3, Q9BZS1-1
Sequence (Q9BZS1 whole entry): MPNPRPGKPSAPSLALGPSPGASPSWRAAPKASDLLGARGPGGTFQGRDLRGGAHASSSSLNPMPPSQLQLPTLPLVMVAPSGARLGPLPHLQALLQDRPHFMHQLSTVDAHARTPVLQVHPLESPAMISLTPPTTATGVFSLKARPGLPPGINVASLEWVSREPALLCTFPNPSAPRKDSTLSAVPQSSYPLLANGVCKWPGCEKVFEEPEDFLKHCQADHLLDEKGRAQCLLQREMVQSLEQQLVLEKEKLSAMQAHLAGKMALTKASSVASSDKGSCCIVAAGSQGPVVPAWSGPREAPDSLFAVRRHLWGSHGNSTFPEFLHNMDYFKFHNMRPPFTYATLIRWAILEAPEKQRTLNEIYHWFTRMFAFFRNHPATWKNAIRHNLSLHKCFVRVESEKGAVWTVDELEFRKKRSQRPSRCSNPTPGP

For “Serine/threonine-protein kinase pim-1 (Homo sapiens), P11309-1 K67M”, the “effect of a mutation on the interaction” value was “disrupting interaction strength”.
